Results taken from patent publication US20220119492A1 (MEDIKINE, published 2022).
Bridge positions count the residues as written; N and C are the ends. Ends that are not written are not given here.

Each binder was assayed against T1, human IL-2Rβ (CD122 protein, Fc Tag) (27-239) (human, UniProt P14784 27-239) (assay: phage ELISA competition).
T1 construct: range 27-239; Bought protein; also called hu-IL-2Rβ subunit; IL-2Rβ subunit; not shown: Fc tag of the bought protein
T1 sequence (looked up): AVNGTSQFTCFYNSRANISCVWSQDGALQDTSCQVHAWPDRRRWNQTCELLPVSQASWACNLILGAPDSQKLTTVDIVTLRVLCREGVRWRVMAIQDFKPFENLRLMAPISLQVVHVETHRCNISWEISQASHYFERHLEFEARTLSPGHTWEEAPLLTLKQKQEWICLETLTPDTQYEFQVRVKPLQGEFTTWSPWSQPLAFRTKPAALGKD
Procedure, shortened: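 IC50 comes from absorbance measured across a dilution series of ligand in a competitive binding ELISA against human IL-2Rβ-Fc, with a phage tracer as the competitor. The phage tracer (50 μL) was added with no wash step for 45 min at 4° C. Detection of bound phage used TMB for 1 to 15 min at 25° C, then stop solution and a reading at 450 nm.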
Work on WKPCWLAQLGDLCEME [SEQ ID NO 2587] yielded an IC50 of less than 100 µM.
With GYPCWLAQLGDYCDLDAGAPSW [SEQ ID NO 2621] the IC50 was less than 100 µM.
WYPCYMASLGELCDLQSSISPR [SEQ ID NO 2634] gave an IC50 of less than 100 µM.
In the case of WKPCWRAQLGELCDLELGPSER [SEQ ID NO 2631], the IC50 is reported as less than 100 µM.
SLPCWIARLGELCDLDGYDGEE [SEQ ID NO 2616] gave an IC50 of less than 100 µM.
Binder GAGVLHRWPCWMAKLGDLCDLD [SEQ ID NO 2600] has an IC50 of less than 100 µM.
In the case of SNPCWMAQLWELCDLE [SEQ ID NO 2584], the IC50 is reported as less than 100 µM.
WKPCWMAGLGELCELD [SEQ ID NO 2592] showed an IC50 of less than 100 µM.
For WQPCWMAQLGELCDLE [SEQ ID NO 2586], the IC50 was less than 100 µM.
Binder FFPCWMGQLGDLCDLEVRSMQK [SEQ ID NO 2632] has an IC50 of less than 100 µM.
Work on WLPCWMAQLGELCVME [SEQ ID NO 2589] yielded an IC50 of less than 100 µM.
For WSPCWIATLGELCDLD [SEQ ID NO 2595], the IC50 was less than 100 µM.
With WYPCHMAKLRELCDLD [SEQ ID NO 2582] the IC50 was less than 100 µM.
In the case of VRAWYPCWIARLGELCDLEVD (disulfide 7-16 (inferred)) [SEQ ID NO 2580], the IC50 is reported as less than 100 µM.
In the case of MGSWLPCWMAQLGDLCDVEGGM [SEQ ID NO 2636], the IC50 is reported as less than 100 µM.
Binder RLPCWRAQLGDLCELDWGLDMG [SEQ ID NO 2619] has an IC50 of less than 100 µM.
ALVGGTFYPCYVAHLGELCDIE [SEQ ID NO 2606] was tested, and the IC50 was less than 100 µM.
Work on WKPCWMAALGELCDLERSVGKV [SEQ ID NO 2630] yielded an IC50 of less than 100 µM.
For YKPCWIAQLGELCELE [SEQ ID NO 2585], the IC50 was less than 100 µM.
In the case of YVPCYMARLGELCELEANRPGQ [SEQ ID NO 2625], the IC50 is reported as less than 100 µM.
WLPCWLAHLGDICDLQ [SEQ ID NO 2597] showed an IC50 of less than 100 µM.
Binder WFPCWMAQLGEVCDLD [SEQ ID NO 2581] has an IC50 of less than 100 µM.
With AYRIYPCWKAQLGELCDLDNAD [SEQ ID NO 2641] the IC50 was less than 100 µM.
In the case of WYSCGKAQLGELCDLDVESQPG [SEQ ID NO 2624], the IC50 is reported as less than 100 µM.
Binder YRRERVEFPCWLAQLGELCDKE [SEQ ID NO 2608] has an IC50 of less than 100 µM.
Binder SKPCWLAQLGDLCDFDWTAADH [SEQ ID NO 2626] has an IC50 of less than 100 µM.
For SLPCWMAQLGDLCELH (disulfide 4-13 (inferred)) [SEQ ID NO 2583], the IC50 was less than 100 µM.
WKPCWLAQLGELCDLERPSTTS [SEQ ID NO 2623] showed an IC50 of less than 100 µM.
WRRWYPCWMAQLGELCDLDQWT (disulfide 7-16 (inferred)) [SEQ ID NO 2639] showed an IC50 of less than 100 µM.
For SKPCWMAQLGELCDLDVWNLQM [SEQ ID NO 2620], the IC50 was less than 100 µM.
TVGQFEWYPCSTAQLGELCDLD [SEQ ID NO 2605] showed an IC50 of less than 100 µM.
Binder IDRADGWKPCWIAQVGELCVLE [SEQ ID NO 2607] has an IC50 of less than 100 µM.
Binder WWPCSSAELGEICDFD [SEQ ID NO 2593] has an IC50 of less than 100 µM.
For EQGMLGYFPCWKALLGDVCDLD [SEQ ID NO 2602], the IC50 was less than 100 µM.
DTGRDGWKPCWMALLGELCELE (disulfide 10-19 (inferred)) [SEQ ID NO 2601] showed an IC50 of less than 100 µM.
For GQVVETSLPCWEAQLGELCVLD [SEQ ID NO 2604], the IC50 was less than 100 µM.
With WTPCWIAHLGDLCDLEPQDDTD (disulfide 4-13 (inferred)) [SEQ ID NO 2628] the IC50 was less than 100 µM.
WLPCWMAKLGDLCELE [SEQ ID NO 2588] showed an IC50 of less than 100 µM.
FYPCWKARLGELCELEELRGYY [SEQ ID NO 2617] gave an IC50 of less than 100 µM.
GSGWQPCWMADLGELCDLDNEK [SEQ ID NO 2638] gave an IC50 of less than 100 µM.
For YKPCQMAQLGELCDLDVDNKAE [SEQ ID NO 2613], the IC50 was less than 100 µM.
Binder QRNSFPCWLAQLGDLCDLGDWA [SEQ ID NO 2642] has an IC50 of less than 100 µM.
For WKPCWMARLGELCDIEDTKVNA [SEQ ID NO 2615], the IC50 was less than 100 µM.
Work on WNPCWIAQLGDLCDMV [SEQ ID NO 2596] yielded an IC50 of less than 100 µM.
Binder IPKGESWFPCWMAAMGELCDLE [SEQ ID NO 2610] has an IC50 of less than 100 µM.
AVSHGNWLPCYIAQLGELCDLD [SEQ ID NO 2609] was tested, and the IC50 was less than 100 µM.
Binder QKGFLPCWRAQLGQLCDMESQY [SEQ ID NO 2637] has an IC50 of less than 100 µM.
For WKPCWIADLGELCDLAPAWHEY [SEQ ID NO 2618], the IC50 was less than 100 µM.
Work on WRVTASLQPCWMAQLGELCDLN [SEQ ID NO 2603] yielded an IC50 of less than 100 µM.
For WFPCWMAQLGDLCELEPDSVPA [SEQ ID NO 2627], the IC50 was less than 100 µM.
With FKPCWIANLGELCDMDDERSSE [SEQ ID NO 2614] the IC50 was less than 100 µM.
WYPCWMAHLGDVCDLESFGQTE [SEQ ID NO 2612] showed an IC50 of less than 100 µM.
In the case of WYPCWIAQLGEVCDLEKQTGSV (disulfide 4-13 (inferred)) [SEQ ID NO 2611], the IC50 is reported as less than 100 µM.
Binder WDVHAIRNPCWLAKLGDLCDLD [SEQ ID NO 2599] has an IC50 of less than 100 µM.
Binder QPAWLPCWLAQLGELCDLGTGA [SEQ ID NO 2643] has an IC50 of less than 100 µM.
WLSPPSYLPCWMAQLGELCDLV [SEQ ID NO 2598] gave an IC50 of less than 100 µM.
In the case of LHPCWMAQLGELCDLE [SEQ ID NO 2590], the IC50 is reported as less than 100 µM.
WQPCWRAKLGELCDLE (disulfide 4-13 (inferred)) [SEQ ID NO 2594] showed an IC50 of less than 100 µM.
YWPCSMASLGELCDLEWQGRLP [SEQ ID NO 2633] showed an IC50 of less than 100 µM.
With RRSWYPCRIAQLGELCDLDPRV (disulfide 7-16 (inferred)) [SEQ ID NO 2640] the IC50 was less than 100 µM.
Work on SLPCWMAQLGELCDLV [SEQ ID NO 2591] yielded an IC50 of less than 100 µM.
WYPCWMAQLGELCDHEWPSYGA [SEQ ID NO 2635] showed an IC50 of less than 100 µM.
WKPCFIASLGELCDLDQGSVEV [SEQ ID NO 2629] showed an IC50 of less than 100 µM.
SWPCWMAQLGDLCDLDGSAGAS [SEQ ID NO 2622] gave an IC50 of less than 100 µM.
